# Data reported in the supplement of paper PMC9233669.
# Variants at the floor of the assay were thinned out.
# Experiments:
# [1] = test system: biotinyl-Met-oxazolone; experiment: self-aminoacylation, catalytic enhancement (BMO) (fold over background); higher = more active; k-Seq, kA / k0A0; sequences stand for … in GGGAAUGGAUCCACAUCUACGAAUUC…UUCACUGCAGACUUGACGAAGCUG
# Method in brief: (§1)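 Mutagenized RNA pools with a 21-nt variable region (0.43 μM) reacted with each biotinyl-aminoacyl-oxazolone at 2–1250 μM. Reactions ran in 50 μL HEPES/NaCl/KCl/MgCl2/CaCl2 buffer with 5% acetonitrile, pH 6.9–7.0, for 90 minutes at room temperature. Streptavidin-captured RNA was quantified by triplicate qPCR and Illumina sequencing, and per-sequence fraction reacted was fit to a pseudo-first-order model with 1000 bootstraps. Catalytic enhancement is median kA divided by the uncatalyzed rate, the low-activity peak of a bimodal Gaussian fit.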
# [2] = test system: biotinyl-Ile-oxazolone; experiment: self-aminoacylation, catalytic enhancement (BIO) (fold over background); higher = more active; k-Seq, kA / k0A0; sequences stand for … in GGGAAUGGAUCCACAUCUACGAAUUC…UUCACUGCAGACUUGACGAAGCUG
# Method in brief: as §1
# [3] = test system: biotinyl-Leu-oxazolone; experiment: self-aminoacylation, catalytic enhancement (BLO) (fold over background); higher = more active; k-Seq, kA / k0A0; sequences stand for … in GGGAAUGGAUCCACAUCUACGAAUUC…UUCACUGCAGACUUGACGAAGCUG
# Method in brief: as §1
# [4] = test system: biotinyl-Val-oxazolone; experiment: self-aminoacylation, catalytic enhancement (BVO) (fold over background); higher = more active; k-Seq, kA / k0A0; sequences stand for … in GGGAAUGGAUCCACAUCUACGAAUUC…UUCACUGCAGACUUGACGAAGCUG
# Method in brief: as §1
# [5] = test system: biotinyl-Trp-oxazolone; experiment: self-aminoacylation, catalytic enhancement (BWO) (fold over background); higher = more active; k-Seq, kA / k0A0; sequences stand for … in GGGAAUGGAUCCACAUCUACGAAUUC…UUCACUGCAGACUUGACGAAGCUG
# Method in brief: as §1
# [6] = test system: biotinyl-Phe-oxazolone; experiment: self-aminoacylation, catalytic enhancement (BFO) (fold over background); higher = more active; k-Seq, kA / k0A0; sequences stand for … in GGGAAUGGAUCCACAUCUACGAAUUC…UUCACUGCAGACUUGACGAAGCUG
# Method in brief: as §1
Sequence,self-aminoacylation [1],self-aminoacylation [2],self-aminoacylation [3],self-aminoacylation [4],self-aminoacylation [5],self-aminoacylation [6]
AUUCCCCUGGCCAUCGAGUGA [Fam2.1 aminoacylation ribozyme variant],6.17,3.34,8.45,4.87,6.48,46.6
AUUCCCCUGGGCAUCGAGUGA [Fam2.1 aminoacylation ribozyme variant],10.8,5.22,11.1,5.1,11.6,65.9
AUUCCCCUGGUCACCGAGUGA [Fam2.1 aminoacylation ribozyme variant],9.9,5.93,11.1,5.07,12.6,73.1
AUUCCCCUGGUCAUAGAGUGA [Fam2.1 aminoacylation ribozyme variant],10,5.4,10.1,5.89,13.1,70.9
AUUCCCCUGGUCAUCGAGCGA [Fam2.1 aminoacylation ribozyme variant],2.63,2.14,2.75,2.17,1.53,8.04
AUUCCCCUGGUCAUCGAGUUA [Fam2.1 aminoacylation ribozyme variant],1.09,1.33,1.19,1.36,1.08,1.25
AUUCCCCUGGUCAUCUAGUGA [Fam2.1 aminoacylation ribozyme variant],11.9,5.92,11.4,6.23,13,85.5
AUUCCCCUGGUCAUGGAGUGA [Fam2.1 aminoacylation ribozyme variant],3.85,2.92,3.99,3.12,4.27,16.3
AUUCCCCUUGGUCAUCGGGUG [Fam2.2 aminoacylation ribozyme variant],20.4,13.4,27.4,13.7,18.9,165
AUUCCCGUGGUCAUCGAGUGA [Fam2.1 aminoacylation ribozyme variant],8.45,5.17,9.05,5.81,11.3,63.3
AUUCCUCUAGGUCAUCGGGUG [Fam2.2 aminoacylation ribozyme variant],16.6,10.4,23.7,10.5,16.1,154
AUUCCUCUGGUCAUCGAGUGA [Fam2.1 aminoacylation ribozyme variant],6.73,3.75,6.46,4.02,7.73,31.6
AUUCGCCUAGAUCAUCGGGUG [Fam2.2 aminoacylation ribozyme variant],2.69,2.08,4.04,2.27,3.12,19.1
AUUCGCCUAGGUCAUCGGAUG [Fam2.2 aminoacylation ribozyme variant],0.94,0.941,0.903,1.07,0.704,0.493
AUUCGCCUAGGUCAUCGGGAG [Fam2.2 aminoacylation ribozyme variant],1.51,1.29,1.87,1.54,0.98,2.55
AUUCUCCAAGGUCAUCGGGUG [Fam2.2 aminoacylation ribozyme variant],11.8,6.8,15.6,7.99,10.7,102
AUUCUCCUAGGUAAUCGGGUG [Fam2.2 aminoacylation ribozyme variant],4.1,2.55,6.03,2.45,4.29,33.1
AUUCUCCUAGGUCACCGGGUG [Fam2.2 aminoacylation ribozyme variant],7.25,5.47,10.2,5.85,7.7,39.8
AUUCUCCUAGGUCAUCAGGUG [Fam2.2 aminoacylation ribozyme variant],2.62,2.12,2.71,2.3,2.38,6.58
AUUCUCCUAGGUCAUCGCGUG [Fam2.2 aminoacylation ribozyme variant],20.9,11.4,27.3,12.2,20.6,170
AUUCUCCUAGGUCAUCGGAUG [Fam2.2 aminoacylation ribozyme variant],0.975,1.03,0.907,1.1,0.795,0.611
AUUCUCCUAGGUCCUCGGGUG [Fam2.2 aminoacylation ribozyme variant],6.44,4.72,10.5,4.54,7.62,54.1
AUUCUCCUAGGUCGUCGGGUG [Fam2.2 aminoacylation ribozyme variant],2.72,2.55,2.85,2.38,2.28,12.2
AUUGACAUAGGUCAUCGGGUG [Fam2.2 aminoacylation ribozyme variant],7.3,5.14,8.84,4.42,8.04,48.4
AUUGACCUAGGUCAACGGGUG [Fam2.2 aminoacylation ribozyme variant],2.6,2.46,2.43,2.31,2.72,8.47
AUUGACCUAGGUCAUCGGGCG [Fam2.2 aminoacylation ribozyme variant],5.01,3.78,6,4.14,4.79,15
